In paper PMC13588620 (eLife, 2026):

Biological target: T1, recombinant SARS-CoV-2 nucleocapsid protein (Severe acute respiratory syndrome …, UniProt P0DTC9)
T1 construct: SARS-CoV-2 nucleocapsid protein; also called NP; N-protein
Test: ELISA; peptide competition ELISA: plate coated with 0.1 ug/ml recombinant SARS-CoV-2 NP overnight at 4°C; 40 μl mBG17 pre-incubated 1 h at room temperature with 40 μg (approximately 30 nMol) of a single peptide fragment, then applied to the plate in triplicate; HRP goat anti-mouse detection; percent of no-peptide control
Conditions: both partners purified

B1: mBG17 anti-SARS-CoV-2 nucleocapsid protein mouse monoclonal antibody (recombinant) (antibody, V domains shown)
VH: EVKLEESGGGLVQPGGSMKFSCVASGFTFSDYWMNWVRQSPDKGLEWVAEIRLKSNNYATHYAASVKGRFTISRDDSKSSVYLQMNNLRAEDSGIYYCTRSAMDYWGQGTSVTVSS
VL: DIVMSQSPSSLAVSVGEKITMSCKSSQSLLYTSDQKNYLAWFQQKPGQSPKLLIFWASTRDSGVPDRFTGSGSGTDFTLTISSVKAEDLAVYYCQQFYNYPRTFGGGTKLEI
notes: VH of mBG17; VL of mBG17; also called recombinant mBG17 antibody; source: recombinant antibody produced in 293F cells (as described in Terry et al., 2021)
binding result: binds
